Data on 5 substances can be found in publication PMC7783346.

Data set [1] has as its system His6-KfrA WT (plasmid RA3 (IncU; Aeromonas hydrophila in Fig S1/S3)). Kind of data set: EMSA. The note with it: EMSA: 50 mM Tris-HCl pH 8.0, 10 mM MgCl2, 50 mM NaCl, 37 C, 30 min, 10 nM EcoRI-NdeI-digested plasmid DNA (vector fragment as internal competitor), 20 ul …. (In general: In EMSA bound probe runs differently from free probe, usually more slowly.)
Data set [2] has as its system His6-KfrA178-355 (plasmid RA3 (IncU; Aeromonas hydrophila in Fig S1/S3)). Put plainly: EMSA. To be noted: EMSA: 50 mM Tris-HCl pH 8.0, 10 mM MgCl2, 50 mM NaCl, 37 C, 30 min, 10 nM EcoRI-NdeI-digested plasmid DNA (vector fragment as internal competitor), 20 ul ….
Data set [3] addresses IncC of plasmid RA3 fused to CyaA T25 (BACTH) (plasmid RA3 (IncU), isolated from Aeromonas spp.). Kind of data set: two-hybrid; bacterial adenylate cyclase two-hybrid (BACTH) in E. coli BTH101 cyaA; CyaA T18 and T25 fusions; MacConkey plates with 1% maltose and β-galactosidase assays in liquid cultures.
Data set [4] concerns the target KfrA of plasmid RA3, intact, fused to a CyaA fragment (BACTH) (plasmid RA3 (IncU), isolated from Aeromonas spp.). The data set is described as above.
Data set [5] has as its target KorB of plasmid RA3 fused to a CyaA fragment (BACTH) (plasmid RA3 (IncU), isolated from Aeromonas spp.). Described as above.
Data set [6] addresses His6-KfrCRA3 labelled with RED-Tris-NTA (plasmid RA3 (IncU), isolated from Aeromonas spp.). Put plainly: MST; labelled His6-KfrC constant at 50 nM, KfrA from 500 nM to 0.0153 nM; 50 mM KPi pH 7.4, 300 mM NaCl, 0.05% Tween 20; measured at 37°C on Monolith NT.115; four independent experiments.

Values joined by “and” are separate entries in the source; they are usually repeats but may differ in a detail not shown here. Equal values may be shown once.

As usually defined, the Kd is a measure of binding affinity in units of concentration.

As to “WT OK (kfrAp), EcoRI-NdeI fragment of pESB2.68”, the K half in data set [1] (OK variant series) is 240 nM; in data set [1] (preparation used with Ala variants) it was 180 nM; in data set [1] (preparation used with deletion variants, preparations ranged 0.18-0.32 uM), 320 nM; in data set [2], 1700 nM.

In the case of “KfrA of plasmid RA3, intact, fused to a CyaA fragment (BACTH) (natural protein)”, the β-galactosidase activity was 136 U in data set [3]; 4880 U and 5170 U in data set [4]; 1970 U in data set [5].

The substance “KfrC of plasmid RA3, intact, fused to a CyaA fragment (BACTH) (natural protein)” yielded a β-galactosidase activity in data set [5] of 1010 U.

“KfrARA3 with the His6 tag removed (natural protein)”: in data set [6], the Kd is 54 nM.

For the substance pUC18 vector control fragment, in data set [2], the K half came out at 1000 nM.
